Measured values reported in PMC12613623.

Assays:
[1] = target: T1, murine SIRT3 recombinant protein (mouse); assay: SPR; SIRT3 immobilised on a carboxyl sensor chip; ATP5O diluted in running buffer and injected from low to high concentrations; kinetics analysed with Trace Drawer
T1 sequence (Q8R104 whole entry, looked up): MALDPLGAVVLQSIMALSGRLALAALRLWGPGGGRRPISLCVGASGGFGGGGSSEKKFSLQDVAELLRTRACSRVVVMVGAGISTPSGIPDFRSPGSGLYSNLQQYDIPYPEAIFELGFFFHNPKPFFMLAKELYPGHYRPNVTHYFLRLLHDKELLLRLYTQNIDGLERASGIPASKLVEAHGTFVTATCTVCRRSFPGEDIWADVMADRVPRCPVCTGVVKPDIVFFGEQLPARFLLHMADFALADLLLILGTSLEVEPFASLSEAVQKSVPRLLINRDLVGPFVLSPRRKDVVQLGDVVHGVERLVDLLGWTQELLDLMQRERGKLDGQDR

[2] = target: T1, murine SIRT3 recombinant protein (mouse); assay: ITC; Nano ITC (TA Instruments); ATP5O titrated into a SIRT3-containing solution at 25 °C; NanoAnalyze

Kd [1]: 0.0653 nM
koff [1]: 5.54e-08 s⁻¹
kon [1]: 850 M⁻¹ s⁻¹
Kd [2]: 1310 nM
B1: murine ATP5O recombinant protein (natural protein)
chain: FAKLVRPPVQVYGIEGRYATALYSAASKEKKLDQVEKELLRVGQLLKDPKVSLAVLNPYIKRTVKVKSLNDITKREKFSPLTANLMNLLAENGRLGNTQGIISAFSTIMSVHRGEVPCTVTTASPLDDAVLSELKTVLKSFLSPNQILKLEIKTDPSIMGGMIVRIGEKYVDMSAKSKIQKLSKAMREML
